Results published in the supplement of paper PMC10567573.
± gives the standard deviation.

Assay: protein stability index of a GFP-peptide fusion (GPS, HEK-293T) (PSI 1-6); higher = more stable
Details: c terminus: a fixed tail appended
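Note: 24-mer peptide tiles fused after GFP, lentivirally expressed, FACS-sorted into six equal bins by GFP/DsRed ratio, decoded by Illumina sequencing, PSI is the read-weighted mean bin number.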

LLNPNLKDTVICAMKITQEPQGLG [SPACA3]
protein stability index (treatment: DMSO): 2.4 ± 0.4
protein stability index (treatment: MLN4924 1 uM, 8 h): 2.51 ± 0.21

AADIVNFLTVGSVLQMWHIVDKCT [ZBTB22]
protein stability index (treatment: DMSO): 3.24 ± 0.88
protein stability index (treatment: MLN4924 1 uM, 8 h): 3.65 ± 0.2

QQAALPRLSRRMASQHSYPLNRFS [CBY2]
protein stability index (treatment: DMSO): 3.38 ± 0.31
protein stability index (treatment: MLN4924 1 uM, 8 h): 3.45 ± 0.31

SLAHCRHDGEDVACPQGGVQYGAG [LOXL2]
protein stability index (treatment: DMSO): 4.65 ± 0.5
protein stability index (treatment: MLN4924 1 uM, 8 h): 3.96 ± 0.41

LDVERWLKPAMTQAQDEVEQERRL [FCHSD1]
protein stability index (treatment: DMSO): 4.98 ± 0.16
protein stability index (treatment: MLN4924 1 uM, 8 h): 5.11 ± 0.19

ARYGHLDVVEYLVDRCGASVEAGG [FEM1A]
protein stability index (treatment: DMSO): 2.81 ± 0.16
protein stability index (treatment: MLN4924 1 uM, 8 h): 2.98 ± 0.43

MYKLSSEQFHEAASKMESTIKPRR [CHCHD6]
protein stability index (treatment: DMSO): 3.72 ± 0.53
protein stability index (treatment: MLN4924 1 uM, 8 h): 4.07 ± 0.64

GFAVKALWGRTQEEAEELAKEMSV [GFOD1]
protein stability index (treatment: DMSO): 4.24 ± 0.13
protein stability index (treatment: MLN4924 1 uM, 8 h): 4.07 ± 0.3

AIKCSPSLHVDDRERMELLEEAKK [RIPK4]
protein stability index (treatment: DMSO): 5.12 ± 0.65
protein stability index (treatment: MLN4924 1 uM, 8 h): 5.28 ± 0.33

FKSFQYPLPWSECPVVRNGSVAVV [SLC6A17]
protein stability index (treatment: DMSO): 2.07 ± 0.29
protein stability index (treatment: MLN4924 1 uM, 8 h): 2.09 ± 0.56

RLLQEEDRRKKIARMGFNASSMLR [DCAF4]
protein stability index (treatment: DMSO): 2.52 ± 0.22
protein stability index (treatment: MLN4924 1 uM, 8 h): 2.57 ± 0.25

ERPERRSGPPASYCAKLCEPQWFY [C8orf76]
protein stability index (treatment: DMSO): 2.46 ± 0.26
protein stability index (treatment: MLN4924 1 uM, 8 h): 2.54 ± 0.32

IDKSMTVVLTFITPMLNPLIYTLK [OR4A15]
protein stability index (treatment: DMSO): 3.67 ± 0.16
protein stability index (treatment: MLN4924 1 uM, 8 h): 2.8 ± 1

LKGVKQACCEFLESQLDPSNCLGI [KLHL12]
protein stability index (treatment: DMSO): 2.66 ± 0.66
protein stability index (treatment: MLN4924 1 uM, 8 h): 2.51 ± 0.29

SYSRLCRESGAEPQEAVLQQLHQL [LRRC45]
protein stability index (treatment: DMSO): 3.71 ± 0.29
protein stability index (treatment: MLN4924 1 uM, 8 h): 3.71 ± 0.19

PETEAVSSSQEIPTMPQPIEKVSV [ZMYND11]
protein stability index (treatment: DMSO): 5.24 ± 0.33
protein stability index (treatment: MLN4924 1 uM, 8 h): 5.36 ± 0.26

DIARMLYKDTCHELDELQLCKNCF [ZMYND11]
protein stability index (treatment: DMSO): 2.27 ± 0.14
protein stability index (treatment: MLN4924 1 uM, 8 h): 2.52 ± 0.49

PLLSPLLASRNPCPWHYLHLSGSH [RSPH3]
protein stability index (treatment: DMSO): 2.15 ± 0.23
protein stability index (treatment: MLN4924 1 uM, 8 h): 2.01 ± 0.2

SQIQGLIGSVEEQLAQLRCEMEQQ [KRT16]
protein stability index (treatment: DMSO): 4.387 ± 0.042
protein stability index (treatment: MLN4924 1 uM, 8 h): 4.52 ± 0.28

SIGDIESCKLVRDKITGQSLGYGF [ELAVL3]
protein stability index (treatment: DMSO): 2.72 ± 0.21
protein stability index (treatment: MLN4924 1 uM, 8 h): 2.55 ± 0.17

PNTLYEGGYFKAHIKFPIDYPYSP [UBE2R2]
protein stability index (treatment: DMSO): 2.26 ± 0.13
protein stability index (treatment: MLN4924 1 uM, 8 h): 2.21 ± 0.27

HEEVYFEPSSSKDSDENSKPSVDT [MIA2]
protein stability index (treatment: DMSO): 5.62 ± 0.33
protein stability index (treatment: MLN4924 1 uM, 8 h): 5.48 ± 0.31

AAQPMTKKRKVDGLSTEAEQPFIP [PRAME]
protein stability index (treatment: DMSO): 4.43 ± 0.21
protein stability index (treatment: MLN4924 1 uM, 8 h): 4.55 ± 0.27

IYTHFTCATDTKNVQFVFDAVTDV [GNAI1]
protein stability index (treatment: DMSO): 2.55 ± 0.46
protein stability index (treatment: MLN4924 1 uM, 8 h): 3.28 ± 1.5

NALSKSSAPPITPECRQVLKTSRK [CHGB]
protein stability index (treatment: DMSO): 4.68 ± 0.22
protein stability index (treatment: MLN4924 1 uM, 8 h): 4.77 ± 0.15

AKEVTIAKADTTSTVTPVPGQEKG [EHMT1]
protein stability index (treatment: DMSO): 5.36 ± 0.28
protein stability index (treatment: MLN4924 1 uM, 8 h): 5.52 ± 0.2

FPRDAVQIEEVFISEEIQMSTKES [MIA2]
protein stability index (treatment: DMSO): 4.56 ± 0.17
protein stability index (treatment: MLN4924 1 uM, 8 h): 4.5 ± 0.2

FVSIAQSEQESLLQQAQAQFRMAQ [SMG5]
protein stability index (treatment: DMSO): 2.68 ± 0.31
protein stability index (treatment: MLN4924 1 uM, 8 h): 3.08 ± 0.47

RAFVSIQEEMAEDPLTYKSRLMVV [RHOBTB2]
protein stability index (treatment: DMSO): 2.74 ± 0.39
protein stability index (treatment: MLN4924 1 uM, 8 h): 2.18 ± 0.4

GANINAQTEETQETALTLACCGGF [ANKRD17]
protein stability index (treatment: DMSO): 4.63 ± 0.15
protein stability index (treatment: MLN4924 1 uM, 8 h): 4.59 ± 0.31

LREMLSKKHAAYAWPFYKPVDAEA [BRD3]
protein stability index (treatment: DMSO): 2.54 ± 0.26
protein stability index (treatment: MLN4924 1 uM, 8 h): 2.99 ± 0.16

SMTAGVSEREANDALNAYVCKGLP [INTS3]
protein stability index (treatment: DMSO): 4.37 ± 0.16
protein stability index (treatment: MLN4924 1 uM, 8 h): 4.38 ± 0.14

VLEQEETAAASRERQEEQSAAIHI [EPB41L3]
protein stability index (treatment: DMSO): 5.33 ± 0.24
protein stability index (treatment: MLN4924 1 uM, 8 h): 5.16 ± 0.23

DKNRCELLSFLLLMDYIGINLATM [EDNRA]
protein stability index (treatment: DMSO): 2.77 ± 0.49
protein stability index (treatment: MLN4924 1 uM, 8 h): 2.92 ± 0.32

FLKKSQLTEHKRIHTGKKPHVCSL [ZNF649]
protein stability index (treatment: DMSO): 2.76 ± 0.36
protein stability index (treatment: MLN4924 1 uM, 8 h): 2.75 ± 0.36

SDSIAYDKGEKLLRCKLAAFYRLA [ADD1]
protein stability index (treatment: DMSO): 2.33 ± 0.49
protein stability index (treatment: MLN4924 1 uM, 8 h): 2.34 ± 0.28
